Data reported in patent US20250043302A1, “MUTATED HYDROXYPHENYLPYRUVATE DIOXYGENASE POLYPEPTIDE, AND CODING GENE AND USE THEREOF” (BEIJING DABEINONG BIOTECHNOLOGY CO., LTD., priority 2021, published 2025).

B1: HPPDm-7-02: nucleotide sequence encoding AsHPPDm-A107-K351N-F372A-F383W with mutated C-terminal; vector DBN11788 (nucleic acid)
DNA: ATGCCACCTACTCCAGCTACAGCTACTGGTGCTGCTGCTGCTGCCGTTACTCCTGAGCACGCTGCCAGGTCATTCCCCAGGGTGGTTCGCGTGAACCCCAGATCTGATAGGTTCCCAGTTCTGAGCTTCCACCATGTTGAGCTGTGGTGCGCTGATGCTGCTTCTGCTGCTGGCAGGTTCTCTTTCGCTCTTGGTGCTCCACTCGCTGCTAGATCTGATCTGTCTACAGGAAATAGCGCTCATGCCTCACTCCTGCTTCGCTCAGGTGCTTTGGCCTTCCTCTTCACCGCTCCATATGCTCCCCCACCTCAGGAGGCTACTGCTGCTGCTACAGCCTCCATTCCAAGCTTCTCAGCTGATGCCGCTAGAACCTTCGCTGCTGCTCATGGACTTGCCGTGAGGTCTGTTGGTGTTCGCGTGGCTGATGCTGCTGAGGCTTTCAGAGTTTCCGTTGCCGGCGGAGCTAGGCCAGCTTTCGCTCCTGCTGATTTGGGACATGGTTTCGGCCTGGCTGAGGTTGAGCTTTACGGTGACGTGGTTCTCCGCTTCGTGTCTTACCCAGATGAGACTGACCTGCCTTTCCTTCCCGGCTTCGAGAGAGTTTCCTCTCCTGGTGCCGTGGATTACGGCCTGACAAGGTTCGACCACGTGGTTGGAAACGTTCCCGAGATGGCTCCAGTGATCGATTACATGAAGGGCTTCCTTGGATTCCATGAGTTCGCCGAGTTCACTGCTGAGGACGTGGGAACCACTGAGTCCGGTTTGAACTCTGTGGTTCTCGCCAACAATTCTGAGGCTGTTTTGCTCCCTCTGAATGAGCCTGTGCATGGAACCAAGAGGAGAAGCCAGATTCAAACTTACCTGGAGTACCACGGTGGCCCTGGAGTTCAGCATATCGCCCTTGCTTCTAATGATGTGTTGCGCACACTCAGAGAGATGCGCGCCAGAACCCCCATGGGAGGTTTCGAGTTCATGGCCCCACCACAGGCTAAGTACTACGAGGGCGTTAGAAGGATTGCTGGAGACGTGTTGAGCGAGGAGCAGATCAATGAGTGCCAAGAGCTGGGTGTTCTTGTGGATAGGGATGACCAGGGCGTTCTGCTTCAAATTGCCACTAAGCCAGTGGGCGACCGCCCTACATTCTGGCTTGAGATGATTCAAAGAATCGGCTGCATGGAGAAGGATGAGGTTGGACAGGAGTACCAAAAGGGCGGATGCGGTGGCTTCGGAAAGGGTAACTTCAGCGAGTTGTTCAAGTCAATCGAGGAGTATGAGAAGACCTTGGAGGCCAAGCAGCTCGTGGGTTGA
modifications: mutated C-terminus; HPPDm-7-02 Nucleotide Sequence
notes: vector DBN11788
B2: HPPDm-6-02: nucleotide sequence encoding Avena sativa HPPD with A106G+K351N+F372A+F383W; vector DBN11787 (nucleic acid)
DNA: ATGCCACCTACTCCAGCTACAGCTACTGGTGCTGCTGCTGCTGCCGTTACTCCTGAGCACGCTGCCAGGTCATTCCCCAGGGTGGTTCGCGTGAACCCCAGATCTGATAGGTTCCCAGTTCTGAGCTTCCACCATGTTGAGCTGTGGTGCGCTGATGCTGCTTCTGCTGCTGGCAGGTTCTCTTTCGCTCTTGGTGCTCCACTCGCTGCTAGATCTGATCTGTCTACAGGAAATAGCGCTCATGCCTCACTCCTGCTTCGCTCAGGTGCTTTGGCCTTCCTCTTCACCGCTCCATATGCTCCCCCACCTCAGGAGGGTGCTACTGCTGCTGCTACAGCCTCCATTCCAAGCTTCTCAGCTGATGCCGCTAGAACCTTCGCTGCTGCTCATGGACTTGCCGTGAGGTCTGTTGGTGTTCGCGTGGCTGATGCTGCTGAGGCTTTCAGAGTTTCCGTTGCCGGCGGAGCTAGGCCAGCTTTCGCTCCTGCTGATTTGGGACATGGTTTCGGCCTGGCTGAGGTTGAGCTTTACGGTGACGTGGTTCTCCGCTTCGTGTCTTACCCAGATGAGACTGACCTGCCTTTCCTTCCCGGCTTCGAGAGAGTTTCCTCTCCTGGTGCCGTGGATTACGGCCTGACAAGGTTCGACCACGTGGTTGGAAACGTTCCCGAGATGGCTCCAGTGATCGATTACATGAAGGGCTTCCTTGGATTCCATGAGTTCGCCGAGTTCACTGCTGAGGACGTGGGAACCACTGAGTCCGGTTTGAACTCTGTGGTTCTCGCCAACAATTCTGAGGCTGTTTTGCTCCCTCTGAATGAGCCTGTGCATGGAACCAAGAGGAGAAGCCAGATTCAAACTTACCTGGAGTACCACGGTGGCCCTGGAGTTCAGCATATCGCCCTTGCTTCTAATGATGTGTTGCGCACACTCAGAGAGATGCGCGCCAGAACCCCCATGGGAGGTTTCGAGTTCATGGCCCCACCACAGGCTAAGTACTACGAGGGCGTTAGAAGGATTGCTGGAGACGTGTTGAGCGAGGAGCAGATCAATGAGTGCCAAGAGCTGGGTGTTCTTGTGGATAGGGATGACCAGGGCGTTCTGCTTCAAATTGCCACTAAGCCAGTGGGCGACCGCCCTACATTCTGGCTTGAGATGATTCAAAGAATCGGCTGCATGGAGAAGGATGAGGTTGGACAGGAGTACCAAAAGGGCGGATGCGGTGGCTTCGGAAAGGGTAACTTCAGCGAGTTGTTCAAGTCAATCGAGGACTACGAGAAGAGCCTCGAGGTGAAGCAGTCAGTGGTTGCCCAAAAGTCCTGA
modifications: HPPDm-6-02 Nucleotide Sequence
notes: vector DBN11787

Experiments:
Type in all cases: in vivo
[1] = tested on: Arabidopsis thaliana T1 plants; assay: Topramezone tolerance of transgenic Arabidopsis thaliana T1 plants (spray, bleached leaf area grade, damage score); settings: Table 10; for Classification and statistics of the grade of pesticide damage Grade 0: number of plants at grade 0; for Classification and statistics of the grade of pesticide damage Grade 1: number of plants at grade 1; for Classification and statistics of the grade of pesticide damage Grade 2: number of plants at grade 2; for Classification and statistics of the grade of pesticide damage Grade 3: number of plants at grade 3; for Scores: pesticide damage score
Outline: (§1)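 Damage graded 0–3 from the proportion of bleached leaf area 7 days after spraying. Plants were glufosinate-selected T1 lines, 18 days after sowing, plus vector and wild-type controls. Rates: mesotrione 52.5–420, isoxaflutole 35–280, topramezone 25–200 g ai/ha, with water (0×).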

[2] = tested on: Arabidopsis thaliana T1 plants; assay: Mesotrione tolerance of transgenic Arabidopsis thaliana T1 plants (spray, bleached leaf area grade, damage score); set-up: Scores: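 damage score 0-100 computed as Σ(N×S)/(T×M)×100 over grades 0-3 with higher meaning more damage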; settings: Table 12; for Classification and statistics of the grade of pesticide damage Grade 0: number of plants at grade 0; for Classification and statistics of the grade of pesticide damage Grade 1: number of plants at grade 1; for Classification and statistics of the grade of pesticide damage Grade 2: number of plants at grade 2; for Classification and statistics of the grade of pesticide damage Grade 3: number of plants at grade 3; for Scores: pesticide damage score
Outline: as §1

[3] = tested on: Arabidopsis thaliana T1 plants; assay: Isoxaflutole tolerance of transgenic Arabidopsis thaliana T1 plants (spray, bleached leaf area grade, damage score); settings: Table 11; for Classification and statistics of the grade of pesticide damage Grade 0: number of plants at grade 0; for Classification and statistics of the grade of pesticide damage Grade 1: number of plants at grade 1; for Classification and statistics of the grade of pesticide damage Grade 2: number of plants at grade 2; for Classification and statistics of the grade of pesticide damage Grade 3: number of plants at grade 3; for Scores: pesticide damage score;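 on Scores: Weighted damage index from 0 to 100 where higher means more damage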
Outline: as §1

Molecule | Resistance evaluation ([1]; topramezone 100 g ai/ha (4×)) | Classification and statistics of the grade of pesticide damage Grade 0 ([1]; topramezone 100 g ai/ha (4×)) | Classification and statistics of the grade of pesticide damage Grade 1 ([1]; topramezone 100 g ai/ha (4×)) | Classification and statistics of the grade of pesticide damage Grade 2 ([1]; topramezone 100 g ai/ha (4×)) | Classification and statistics of the grade of pesticide damage Grade 3 ([1]; topramezone 100 g ai/ha (4×)) | Scores ([1]; topramezone 100 g ai/ha (4×)) | Resistance evaluation ([1]; topramezone 200 g ai/ha (8×)) | Classification and statistics of the grade of pesticide damage Grade 0 ([1]; topramezone 200 g ai/ha (8×)) | Classification and statistics of the grade of pesticide damage Grade 1 ([1]; topramezone 200 g ai/ha (8×)) | Classification and statistics of the grade of pesticide damage Grade 2 ([1]; topramezone 200 g ai/ha (8×)) | Classification and statistics of the grade of pesticide damage Grade 3 ([1]; topramezone 200 g ai/ha (8×)) | Scores ([1]; topramezone 200 g ai/ha (8×)) | Resistance evaluation ([2]; mesotrione 210 g ai/ha (2×)) | Classification and statistics of the grade of pesticide damage Grade 0 ([2]; mesotrione 210 g ai/ha (2×)) | Classification and statistics of the grade of pesticide damage Grade 1 ([2]; mesotrione 210 g ai/ha (2×)) | Classification and statistics of the grade of pesticide damage Grade 2 ([2]; mesotrione 210 g ai/ha (2×)) | Classification and statistics of the grade of pesticide damage Grade 3 ([2]; mesotrione 210 g ai/ha (2×)) | Scores ([2]; mesotrione 210 g ai/ha (2×)) | Resistance evaluation ([2]; mesotrione 420 g ai/ha (4×)) | Classification and statistics of the grade of pesticide damage Grade 0 ([2]; mesotrione 420 g ai/ha (4×)) | further results
B1 | Highly resistant | 16 | 0 | 0 | 0 | 0 | Highly resistant | 16 | 0 | 0 | 0 | 0 | Highly resistant | 16 | 0 | 0 | 0 | 0 | Highly resistant | 15 | Classification and statistics of the grade of pesticide damage Grade 1 ([2]; mesotrione 420 g ai/ha (4×)): 1; Classification and statistics of the grade of pesticide damage Grade 2 ([2]; mesotrione 420 g ai/ha (4×)): 0; Classification and statistics of the grade of pesticide damage Grade 3 ([2]; mesotrione 420 g ai/ha (4×)): 0; Scores ([2]; mesotrione 420 g ai/ha (4×)): 2; Resistance evaluation ([3]; isoxaflutole 140 g ai/ha (2×)): Highly resistant; Classification and statistics of the grade of pesticide damage Grade 0 ([3]; isoxaflutole 140 g ai/ha (2×)): 16; Classification and statistics of the grade of pesticide damage Grade 1 ([3]; isoxaflutole 140 g ai/ha (2×)): 0; Classification and statistics of the grade of pesticide damage Grade 2 ([3]; isoxaflutole 140 g ai/ha (2×)): 0; Classification and statistics of the grade of pesticide damage Grade 3 ([3]; isoxaflutole 140 g ai/ha (2×)): 0; Scores ([3]; isoxaflutole 140 g ai/ha (2×)): 0; Resistance evaluation ([3]; isoxaflutole 280 g ai/ha (4×)): Highly resistant; Classification and statistics of the grade of pesticide damage Grade 0 ([3]; isoxaflutole 280 g ai/ha (4×)): 16; Classification and statistics of the grade of pesticide damage Grade 1 ([3]; isoxaflutole 280 g ai/ha (4×)): 0; Classification and statistics of the grade of pesticide damage Grade 2 ([3]; isoxaflutole 280 g ai/ha (4×)): 0; Classification and statistics of the grade of pesticide damage Grade 3 ([3]; isoxaflutole 280 g ai/ha (4×)): 0; Scores ([3]; isoxaflutole 280 g ai/ha (4×)): 0
B2 | Highly resistant | 16 | 0 | 0 | 0 | 0 | Highly resistant | 16 | 0 | 0 | 0 | 0 | Highly resistant | 16 | 0 | 0 | 0 | 0 | Highly resistant | 16 | Classification and statistics of the grade of pesticide damage Grade 1 ([2]; mesotrione 420 g ai/ha (4×)): 0; Classification and statistics of the grade of pesticide damage Grade 2 ([2]; mesotrione 420 g ai/ha (4×)): 0; Classification and statistics of the grade of pesticide damage Grade 3 ([2]; mesotrione 420 g ai/ha (4×)): 0; Scores ([2]; mesotrione 420 g ai/ha (4×)): 0; Resistance evaluation ([3]; isoxaflutole 140 g ai/ha (2×)): Highly resistant; Classification and statistics of the grade of pesticide damage Grade 0 ([3]; isoxaflutole 140 g ai/ha (2×)): 16; Classification and statistics of the grade of pesticide damage Grade 1 ([3]; isoxaflutole 140 g ai/ha (2×)): 0; Classification and statistics of the grade of pesticide damage Grade 2 ([3]; isoxaflutole 140 g ai/ha (2×)): 0; Classification and statistics of the grade of pesticide damage Grade 3 ([3]; isoxaflutole 140 g ai/ha (2×)): 0; Scores ([3]; isoxaflutole 140 g ai/ha (2×)): 0; Resistance evaluation ([3]; isoxaflutole 280 g ai/ha (4×)): Highly resistant; Classification and statistics of the grade of pesticide damage Grade 0 ([3]; isoxaflutole 280 g ai/ha (4×)): 13; Classification and statistics of the grade of pesticide damage Grade 1 ([3]; isoxaflutole 280 g ai/ha (4×)): 3; Classification and statistics of the grade of pesticide damage Grade 2 ([3]; isoxaflutole 280 g ai/ha (4×)): 0; Classification and statistics of the grade of pesticide damage Grade 3 ([3]; isoxaflutole 280 g ai/ha (4×)): 0; Scores ([3]; isoxaflutole 280 g ai/ha (4×)): 6
